Experimental findings from patent US20250205362A1, “LIPID NANOPARTICLES” (NATIONAL UNIVERSITY CORPORATION HOKKAIDO UNIVERSITY, priority 2022, published 2025) are described below.

{IBFQ} = Iowa Black FQ quencher

Data set [1] is described as follows: Encapsulation rate of lipid nanoparticles (Ribogreen). The class given is physicochemical. The method, then:
The encapsulation rate of the lipid nanoparticles was calculated by measuring the amount of encapsulated nucleic acid (the amount of ssODN in the case of RNP-ssODN) using an RNA intercalator Ribogreen (manufactured by Life Technologies).

A short description of data set [2]: Average particle diameter, PdI and zeta potential of lipid nanoparticles (dynamic light scattering). The class given is physicochemical. The method, then: The mean particle diameter (number average value), ζ-mean particle diameter, and polydispersity index (PdI) of the lipid nanoparticles in PBS(−) (pH 7.4), as well as the zeta potential in 10 mM HEPES buffer (pH 7.4), were measured using an analyzing device, Zetasizer Nano ZS ZEN3600 (Malvern), which utilizes dynamic light scattering.

Data set [3] is described as follows: Metabolic evaluation: lipid amount in the liver (LC/MS). The class given is in vivo, mouse. Particulars: FIG. 4; Fluc mRNA-loaded LNP iv 0.5 mg mRNA/kg, BALB/c mice; 0.5, 4, 24 hours. The method, then:
For liquid chromatography-mass spectrometry (LC/MS) for lipid quantification, liver samples stored at −80° C. prior to analysis were used. Mice were intravenously injected with lipid nanoparticles (0.5 mg RNA/kg body weight) and then liver tissue was harvested.
The tissue was homogenized in 200 μL of water, and the resulting tissue homogenate (50 μL) was subjected to an extraction with 400 μL of acetonitrile/isopropanol (50:50 (v/v)). The extract was centrifuged (4000 rpm, 10 min), the supernatant was filtered, and the filtrate was diluted 50-fold with water/acetonitrile/isopropanol (1:8:8 (v/v)) and transferred to a vial for LC/MS analysis using an Accucore. LC/MS was performed under the following conditions. The parent lipids and their predicted metabolites were detected under optimized conditions. Each lipid molecule was monitored using the following masses: [M+H]^+->916 (CL4H6), 864 (CL4F6), 982 (CL4F10-b-7), 752 (CL4F10-e-2). […]
Specifically, lipid nanoparticles encapsulating Fluc mRNA (Fluc mRNA-loaded lipid nanoparticles) were intravenously injected into BALB/c mice (female, 4 weeks old) at a dose of 0.5 mg mRNA/kg body weight. The mice were euthanized 0.5 hours, 4 hours, or 24 hours after the intravenous injection, and the amount of lipid derived from each lipid nanoparticle in the liver was measured.

Data set [4] concerns sgTTR-G211-5FAM. Description: Tm value between sgRNA and ssODN by fluorescence quenching method. The class given is physicochemical. Particulars: with sgTTR-G211-5FAM in Cas9 RNP; FIG. 21(B); n=3. The method, then: To measure the Tm value between sgRNA and ssODN in the RNP complex using the fluorescence quenching method, a FAM-modified sgRNA whose 5′ end was modified with the fluorescent substance FAM and a 20-base-long IBFQ-modified ssODN whose 3′ end was modified with the quenching substance IBFQ were used.
Specifically, IBFQ-modified ssODN (5 equivalents relative to RNP) was added to Cas9 RNP containing FAM-modified sgRNA (final RNP concentration: 2.5 μM) to form an RNP-ssODN complex. The resulting solution (10 μL) was incubated at 10° C., after which the temperature was increased by 1° C. at 10 second intervals. The fluorescence intensity was measured at each temperature from 11 to 70° C. using a thermal cycler (“Dice® Real Time System III”, TaKaRa Bio Inc.). The temperature at which the fluorescence intensity was maximized was taken as the measured Tm value (° C.).

The subject of data set [5] is TTR gene. Description: Measurement of TTR-KO activity (serum TTR protein, ELISA). It counts as in vivo, mouse. In a few lines: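 Female BALB/c mice (4 weeks) received Cas9/sgTTR-RNP-loaded lipid nanoparticles i.v. at the indicated doses. Serum TTR protein measured by ELISA one week later. TTR-KO activity expressed as serum TTR (%) relative to untreated mice set at 100%.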
(In an ELISA, binding on a coated surface is turned into a signal by an enzyme label.)

The test system of data set [6] is dsDNA from the TTR locus. The data set is described as follows: In vitro DNA cleavage activity. It counts as biochemical, mouse. Particulars: n=3. The text has this: Genomic DNA was collected and purified from BALB/c mouse liver tissue using a commercially available nucleic acid extraction kit (NucleoSpin Tissue, MACHEREY-NAGEL) according to the manufacturer's protocol.
The dsDNA from the TTR locus was amplified by PCR (using KAPA HiFi HotStart DNA polymerase (KAPA Biosystems)) using the genomic DNA as a template and the primer set shown in Table 4, and purified using a commercially available nucleic acid purification kit (ISOSPIN PCR Product, Nippon Gene).
The ssODN (5 equivalents relative to […]) was added to Cas9/sgTTR-RNP to form a TTR-RNP-ssODN complex. […] The reaction solution was then heated at 65° C. for 5 minutes to inactivate Cas9-RNP, and the dsDNA was then subjected to electrophoresis on a 3% agarose gel at 100 V for 40 minutes. After electrophoresis, the gel was stained (GelRed, Biotium) and visualized using a fluorescent/visible light gel imaging system (Printgraph CMOS I, ATTO). Bands were quantified using image analysis software (ImageJ).
DNA cleavage was calculated using the following formula: in the formula, Int_full and Int_cleaved indicate the intensities derived from full length (uncleaved) and cleaved DNA, respectively.

The subject of data set [7] is TTR gene. The data set is described as follows: T7E1 assay on liver genomic DNA. Particulars: 2 mg RNP/kg iv two consecutive days, one week after final injection, CL4H6 LNP, n=3. It counts as in vivo, mouse. The method, then:
Lipid nanoparticles encapsulating TTR-RNP-ssODN complexes (TTR-RNP-ssODN-loaded lipid nanoparticles) were intravenously injected to BALB/c mice (female, 4 weeks old) at 2 mg RNP/kg body weight for two consecutive days. One week after the last injection, the mice were euthanized and liver tissues were harvested, flash frozen in liquid nitrogen, and stored at −80° C.
Genomic DNA was extracted and purified from the collected liver tissue using a commercially available nucleic acid extraction kit (NucleoSpin Tissue, MACHEREY-NAGEL) according to the manufacturer's protocol.
The T7E1 assay was performed using a commercially available genome editing detection kit (Alt-R®, Integrated DNA Technologies). The dsDNA treated with T7E1 was subjected to agarose gel electrophoresis in the same manner as in the above described <Measurement of In vitro DNA Cleavage Activity>, and the gel after electrophoresis was stained and the bands were quantified.

The nature of data set [8]: Evaluation of biodistribution (fluorescently labeled RNP-ssODN). It counts as in vivo, mouse. The conditions noted are these: mice iv 2 mg RNP/kg, 1 hour; labeled TTR-RNP-ssODN in CL4H6 LNP (ssODN(−): free RNP, no LNP). The method, then:
For fluorescent labeling of lipid nanoparticles, the RNP-ssODN solution described above was mixed with a three-fold molar amount of a fluorescent molecule (DyLight 650 NHS ester) in DMSO and incubated for 30 min at ambient temperature in the dark. Unreacted fluorescent molecules were removed by ultrafiltration (Amicon Ultra-0.5, MWCO 3 kDa, Millipore).
Lipid nanoparticles encapsulating the obtained fluorescently labeled RNP-ssODN (fluorescently labeled RNP-ssODN-loaded lipid nanoparticles) were intravenously injected into BALB/c mice (female, 4 weeks old) at 2 mg RNP/kg body weight. One hour after intravenous injection, the mice were euthanized and various tissues, including blood, were collected. The collected blood was immediately diluted with 1% sodium dodecyl sulfate (SDS) solution. The collected tissues were immediately weighed and then homogenized in 1% sodium dodecyl sulfate (SDS) solution. The resulting homogenates were transferred to a black 96-well plate, and fluorescence was measured using a microplate reader (VarioskanLux, Thermo Fisher Scientific) at settings of λex=652 nm and λem=672 nm. Calibration curves were generated using fluorescently labeled RNP-ssODN-loaded lipid nanoparticles and blood or tissue homogenates similarly prepared from untreated mice. Biodistribution was expressed as the percentage of injected dose per tissue or blood (% injected dose).

[9] abbreviates: TTR-RNP-ssODN-loaded LNP (ssODN-TTR_3-40%), cationic lipid/DSPC/cholesterol/PEG-DMG 50/10/40/3.5 mol%, Table 8.
[10] abbreviates: TTR-RNP-ssODN-loaded LNP, sgTTR-G211, CL4H6/DSPC/cholesterol/PEG-DMG 50/10/40/3.5 mol%, Table 11.
Setting [11] is: TTR-KO activity in mice, TTR-RNP-ssODN-loaded LNP CL4H6/DSPC/cholesterol/PEG-DMG 50/10/40/3.5 mol%, sgTTR-G211 (TTR_3) or sgTTR-G269 (TTR_4).

`CCCCCCCC/C=C\CCCCCCCC(=O)OCCCCCCC(O)(CCCCCCOC(=O)CCCCCCC/C=C\CCCCCCCC)CCCCN(C(C)C)C(C)C` [CL4H6, 7-(4-(diisopropylamino)butyl)-7-hydroxytridecane-1,13-diyl dioleate, reference compound]: the Encapsulation rate in data set [1] (setting [9]) is recorded as 83.5%. In data set [2] (setting [9]), this molecule showed a Number-average particle diameter of 80.1 nm, a PdI of 0.254, a ζ-average of 136.5 nm and a ζ-potential of 2.83 mV. The “amount of lipid in the liver (metabolism)” value in data set [3] is reported as “almost completely disappeared from the liver 24 hours after administration”.

Turning to “ssODN-40%-3IBFQ: IBFQ bound to the 3′ end of ssODN-40% (SEQ ID NO 23), 40% matched with the ssON-paired region (DNA AAAAAAAGACGTGGAAAATT; 3' {IBFQ}, sugars by position and backbone not given here)”, the “Tm value (fluorescence quenching)” value in data set [4] turned out to be 32 °C.

As to `CCCCC(CC)CCCCC(=O)OCCCCCCC(O)(CCCCCCOC(=O)CCCCC(CC)CCCC)CCCCN(CCC)CCC` (stereo not shown) [CL4F10-e-2, 7-(4-(dipropylamino)butyl)-7-hydroxytridecane-1,13-diylbis(6-ethyldecanoate)], in data set [3], the “amount of lipid in the liver (metabolism)” value was “most of it was degraded within 24 hours after administration”.

In the case of “ssODN-80%-3IBFQ: IBFQ bound to the 3′ end of ssODN-80% (SEQ ID NO 22), 80% matched with the ssON-paired region (DNA AACTGTAGACGTGGCTGTTT; 3' {IBFQ}, sugars by position and backbone not given here)”, the “Tm value (fluorescence quenching)” value in data set [4] amounted to 62 °C.

B1: ssODN-TTR_3-40%: ssODN pairing with sgTTR-G211, 40% matched; SEQ ID NO 7 (nucleic acid)
DNA: AAAAAAAAAAAAAAAAAAAAAAAAAAAAAAAAAAAAAAAAAAAAAAAAAAAAAAAAAAAAAAAGACGTGGAAAATTAAAAAAAAAAAAAAAAAAAAAAAAAAAAAAAAAAAAAAAAAAAAAAAAAAAAAAAA
B1 yielded an Encapsulation rate in data set [1] (setting [10]) of 86.0%. In data set [2] (setting [10]), this molecule displayed a Number-average particle diameter of 85.5 nm, a PdI of 0.094, a ζ-average of 120.1 nm and a ζ-potential of 2.54 mV. In data set [5] (2 mg RNP/kg iv two consecutive days, one week after final injection, CL4H6 LNP), the “reduction of serum TTR protein concentration compared to untreated mice” value amounted to 81%. The “serum TTR activity / gene knockout activity” value in data set [5] (FIG. 23, CL4H6 LNP prepared at 4° C., 2.0 mg RNP/kg, 7 days) is on record as “low serum TTR activity, exhibiting sufficient gene knockout activity”. Besides, in data set [5] (setting [11]), the “KO (%) 1st test” value was found to be 47.8% and the “KO (%) 2nd test” value worked out at 56.5%. Further, the “TTR-KO activity (ranking among ssODNs)” value in data set [5] (Table 10, CL4H6 LNP, per sgRNA) is recorded as “highest TTR-KO activity”. In addition, in data set [6] (FIG. 7, TTR-RNP-ssODN, sgTTR-G211, 37° C. 30 min), the “in vitro DNA cleavage activity” value is “about the same as that of TTR-RNP-ssODN containing ssODN-TTR_3-0%”. Besides, the “relative DNA cleavage activity at 37° C.” value in data set [6] (FIG. 22(A), sgTTR-G211 RNP, activity without ssODN = 100%) is “about the same as that of the RNP containing ssODN-TTR_3-0%”. For the same molecule, the “relative DNA cleavage activity at 15° C.” value in data set [6] (FIG. 22(B), sgTTR-G211 RNP, activity without ssODN = 100%) is on record as “higher than that of RNP containing ssODN-TTR_3-80%, but was clearly lower than that of RNP containing ssODN-TTR_3-0%”. Further, the “KO activity at the DNA level” value in data set [7] is 27%. In data set [8], the ID %/tissue blood is 7.57 ID %/tissue, the ID %/tissue kidney worked out at 0.14 ID %/tissue, the ID %/tissue liver came out at 42.28 ID %/tissue and the ID %/tissue lung is reported as 0.26 ID %/tissue. Further, the ID %/tissue spleen in data set [8] is 3.49 ID %/tissue.
